# T1: Peptide 65005
# T1 chain: NLTTYPYFIPL
# T2: Peptide 65007
# T2 chain: ALYPYFLPISAK
# B1: BACE in mouse primary cortical neurons (protein)
# chain: ETDEESEEPGRRGSFVEMVDNLRGKSGQGYYVEMTVGSPPQTLNILVDTGSSNFAVGAAPHPFLHRYYQRQLSSTYRDLRKGVYVPYTQGKWEGELGTDLVSIPHGPNVTVRANIAAITESDKFFINGSNWEGILGLAYAEIARPDDSLEPFFDSLVKQTHIPNIFSLQLCGAGFPLNQTEALASVGGSMIIGGIDHSLYTGSLWYTPIRREWYYEVIIVRVEINGQDLKMDCKEYNYDKSIVDSGTTNLRLPKKVFEAAVKSIKAASSTEKFPDGFWLGEQLVCWQAGTTPWNIFPVISLYLMGEVTNQSFRITILPQQYLRPVEDVATSQDDCYKFAVSQSSTGTVMGAVIMEGFYVVFDRARKRIGFAVSACHVHDEFRTAAVEGPFVTADMEDCGYNIPQTDESTLMTIAYVMAAICALFMLPLCLMVCQWRCLRCLRHQHDDFADDISLLK
# Experiments:
# [1] = target: BACE inhibitor 1 (statine BACE inhibitor 1)
# Peptide 65005 = target: T1, Peptide 65005
# Peptide 65007 = target: T2, Peptide 65007
# [2] = target: recombinant sAPPα, human, amino acids 19-613, P05067
# recombinant sAPPα, human, amino acids 19-613, P05067, sequence (P05067 19-613): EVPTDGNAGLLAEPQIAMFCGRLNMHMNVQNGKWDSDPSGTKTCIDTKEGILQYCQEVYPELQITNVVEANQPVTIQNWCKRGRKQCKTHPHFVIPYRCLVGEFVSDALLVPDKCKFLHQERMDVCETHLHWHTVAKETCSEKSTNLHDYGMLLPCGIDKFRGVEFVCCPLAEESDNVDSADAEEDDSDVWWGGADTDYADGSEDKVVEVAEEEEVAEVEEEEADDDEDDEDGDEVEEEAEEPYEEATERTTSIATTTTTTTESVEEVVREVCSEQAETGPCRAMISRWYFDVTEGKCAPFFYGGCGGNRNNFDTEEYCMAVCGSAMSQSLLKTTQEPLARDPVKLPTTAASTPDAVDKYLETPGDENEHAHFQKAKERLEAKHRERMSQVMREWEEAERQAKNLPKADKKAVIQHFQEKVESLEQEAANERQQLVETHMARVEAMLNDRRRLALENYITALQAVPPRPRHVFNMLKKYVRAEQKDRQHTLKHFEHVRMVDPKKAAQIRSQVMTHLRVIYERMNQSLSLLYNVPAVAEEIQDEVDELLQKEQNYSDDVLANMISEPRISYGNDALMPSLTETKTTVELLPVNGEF
protein,measurement,setting,value
B1,"CHL1 and L1CAM cleavage (uncleaved substrate/α-tubulin OD ratio, immunoblot), 10 µM, 24 hours",[1],"only BACE Inh 4 (blue) clearly inhibited cleavage; BACE Inh 1, peptides 65005 and 65007 and sAPPα did not"
same,"uncleaved neurofascin (immunoblot), 10 µM, 24 hours",[1],"Only BACE Inh 4 and BACE Inh 1 treatment resulted in an increase of uncleaved NrCAM or neurofascin, respectively"
same,"CHL1 and L1CAM cleavage (uncleaved substrate/α-tubulin OD ratio, immunoblot), 10 µM, 24 hours",Peptide 65005,"only BACE Inh 4 (blue) clearly inhibited cleavage; BACE Inh 1, peptides 65005 and 65007 and sAPPα did not"
same,"uncleaved NrCAM and neurofascin (immunoblot), 10 µM, 24 hours",Peptide 65005,none of the other inhibitors increased the amount of uncleaved NrCAM or neurofascin substrate
same,"CHL1 and L1CAM cleavage (uncleaved substrate/α-tubulin OD ratio, immunoblot), 10 µM, 24 hours",Peptide 65007,"only BACE Inh 4 (blue) clearly inhibited cleavage; BACE Inh 1, peptides 65005 and 65007 and sAPPα did not"
same,"uncleaved NrCAM and neurofascin (immunoblot), 10 µM, 24 hours",Peptide 65007,none of the other inhibitors increased the amount of uncleaved NrCAM or neurofascin substrate
same,"CHL1 and L1CAM cleavage (uncleaved substrate/α-tubulin OD ratio, immunoblot), 1 µM, 24 hours",[2],"only BACE Inh 4 (blue) clearly inhibited cleavage; BACE Inh 1, peptides 65005 and 65007 and sAPPα did not"
same,"uncleaved NrCAM and neurofascin (immunoblot), 1 µM, 24 hours",[2],none of the other inhibitors increased the amount of uncleaved NrCAM or neurofascin substrate
